The record followed here is paper PMC12152876 (The Journal of Biological Chemistry, 2025).

As usually defined, the stoichiometry N is the number of molecules, sites or subunits per partner or assembly.

The data set deals with the molecule itself. In words: cross-linking.

B1: Ebola virus nucleoprotein (NP), wild type, expressed for DSP cross-linking (natural protein)
chain: MDSRPQKIWMAPSLTESDMDYHKILTAGLSVQQGIVRQRVIPVYQVNNLEEICQLIIQAFEAGVDFQESADSFLLMLCLHHAYQGDYKLFLESGAVKYLEGHGFRFEVKKRDGVKRLEELLPAVSSGKNIKRTLAAMPEEETTEANAGQFLSFASLFLPKLVVGEKACLEKVQRQIQVHAEQGLIQYPTAWQSVGHMMVIFRLMRTNFLIKFLLIHQGMHMVAGHDANDAVISNSVAQARFSGLLIVKTVLDHILQKTERGVRLHPLARTAKVKNEVNSFKAALSSLAKHGEYAPFARLLNLSGVNNLEHGLFPQLSAIALGVATAHGSTLAGVNVGEQYQQLREAATEAEKQLQQYAESRELDHLGLDDQEKKILMNFHQKKNEISFQQTNAMVTLRKERLAKLTEAITAASLPKTSGHYDDDDDIPFPGPINDDDNPGHQDDDPTDSQDTTIPDVVVDPDDGSYGEYQSYSENGMNAPDDLVLFDLDEDDEDTKPVPNRSTKGGQQKNSQKGQHIEGRQTQSRPIQNVPGPHRTIHHASAPLTDNDRRNEPSGSTSPRMLTPINEEADPLDDADDETSSLPPLESDDEEQDRDGTSNRTPTVAPPAPVYRDHSEKKELPQDEQQDQDHTQEARNQDSDNTQSEHSFEEMYRHILRSQGPFDAVLYYHMMKDEPVVFSTSDGKEYTYPDSLEEEYPPWLTEKEAMNEENRFVTLDGQQFYWPVMNHKNKFMAILQHHQ
As for B1, the “stoichiometry N” value is 2.
